A short description of the data set: protein stability index of a GFP-peptide fusion (GPS, HEK-293T) (PSI 1-6); higher = more stable.
The mark [1] stands for this setting: treatment: DMSO, c terminus: a fixed tail appended.
Setting [2] is: treatment: MLN4924 1 uM, 8 h, c terminus: a fixed tail appended.

± gives the standard deviation.
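Note: 24-mer peptide tiles fused after GFP, lentivirally expressed, FACS-sorted into six equal bins by GFP/DsRed ratio, decoded by Illumina sequencing, PSI is the read-weighted mean bin number.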

On to APSLSGKGNPEEEDVDTSQVLYEW [CTNNB1], for which the protein stability index by setting is: under setting [1], 5.14 ± 0.28; under setting [2], 5.15 ± 0.18.

As to LTPKGGVRTSYQPSSPGRFTKETT [TRIM29], the protein stability index reads like this: under setting [1], 4.17 ± 0.16; under setting [2], 4.21 ± 0.11.

With RRQAVAWLVAMHKAAKLLYESRDQ [ZFYVE21], the protein stability index is, setting by setting: under setting [1], 2.29 ± 0.54; under setting [2], 2.36 ± 0.49.

Turning to EEDLQSQSETQGLEGAQAPLAVEE [MAGEA10], the protein stability index is, setting by setting: under setting [1], 5.73 ± 0.14; under setting [2], 5.75 ± 0.089.

The sequence DNEDYPLFRELWRYHFATGVWHQM [KLHDC10] gave a protein stability index under setting [1] of 2 ± 0.76 and a protein stability index under setting [2] of 2.03 ± 0.46.

On to GYVSQQGGQRSTPLIIAARNGHAK [FEM1B], for which the protein stability index under setting [1] worked out at 3.74 ± 0.15 and the protein stability index under setting [2] was determined as 3.8 ± 0.34.

Consider AQSAGTQQVAAVSSVSPATPFQSV [BRD3], for which the protein stability index reads like this: under setting [1], 4.42 ± 0.19; under setting [2], 4.37 ± 0.11.

Take NIPERASGPEGNLNQIVTEPDANF [FAM104B]: the protein stability index runs as follows: under setting [1], 5.35 ± 0.15; under setting [2], 5.23 ± 0.47.

For FLQALSLAVDKQFEERKKLAAYI [TRIP13], the protein stability index turned out to be 3.18 ± 0.71 (treatment: DMSO, c terminus: native) and 2.54 ± 0.51 (treatment: MLN4924 1 uM, 8 h, c terminus: native).

Regarding SSAIEVIMLRSNESFTMDDMSWTC [VDR], the protein stability index reads like this: under setting [1], 2.6 ± 0.53; under setting [2], 2.29 ± 0.38.

The sequence SALEDQGSNPSSSNSSQDSLHKGA [PPFIA4] registered a protein stability index under setting [1] of 5.48 ± 0.14 and a protein stability index under setting [2] of 5.49 ± 0.23.

On to DKPLPPPPPGSLSRTQEPSLGKQK [SOAT2], for which the protein stability index turned out to be 5.27 ± 0.28 under setting [1] and 5.41 ± 0.21 under setting [2].

In the case of DEEVSGSSKTITAEIPDGPPVVAH [C18orf25], the protein stability index is, setting by setting: under setting [1], 5.35 ± 0.25; under setting [2], 5.41 ± 0.22.

With RFPYLCQKNGGGAYLVPYLVLLII [SLC6A17], the protein stability index by setting is: under setting [1], 2.64 ± 1.1; under setting [2], 2.49 ± 0.94.

As to RRFGAVACGVAMELYVFGGVRSRE [GAN], the protein stability index is 3.04 ± 0.79 under setting [1] and 2.26 ± 0.15 under setting [2].

For the sequence PEPWPGGCTGDEAESRGHSKGWGR [MYCL], the protein stability index runs as follows: under setting [1], 4.18 ± 0.12; under setting [2], 4.46 ± 0.56.

For KQIVSAVAHCHQSAIVLGDLKLRK [TRIB1], the protein stability index was determined as 2.77 ± 0.18 under setting [1] and 2.72 ± 0.27 under setting [2].

For the sequence GIGKNVICDRTATPLDAFRMTSAA [GFOD1], the protein stability index amounted to 3.43 ± 0.25 under setting [1] and 3.45 ± 0.17 under setting [2].

GGEYQEPGGNVKGVWAPPAPGFGE [BEX5] showed a protein stability index under setting [1] of 4.05 ± 0.53 and a protein stability index under setting [2] of 4.38 ± 0.31.

On to ENWVCLSCYQVYCGRYINGHMLQH [HDAC6], for which the protein stability index was determined as 2.33 ± 0.76 under setting [1] and 2.54 ± 0.46 under setting [2].

As to RVGQLQEALNERHSIINALKAKLQ [LRRC45], the protein stability index was determined as 2.45 ± 0.43 under setting [1] and 2.46 ± 0.3 under setting [2].

In the case of ADLSQKSPELQEEFGYNAETQKLL [ARFIP2], the protein stability index by setting is: under setting [1], 4.95 ± 0.37; under setting [2], 5.14 ± 0.17.

Turning to PLLLSHTLQELLARDTVQVELIPE [SNX8], the protein stability index came to 2.71 ± 0.23 under setting [1] and 2.73 ± 0.31 under setting [2].

YTDNSIRPEELLQMELLLVNKLKW [CCND1]: the protein stability index amounted to 2.14 ± 0.12 under setting [1] and 2.37 ± 0.29 under setting [2].

For the sequence SEARLSQRDLSPTAEDAELSDFEE [FCHSD1], the protein stability index by setting is: under setting [1], 5.44 ± 0.38; under setting [2], 5.53 ± 0.39.

Take KAILKNISVLAFSVCFIFTITIGM [SLC29A1]: the protein stability index turned out to be 3.19 ± 0.29 under setting [1] and 2.96 ± 0.44 under setting [2].

Turning to NDGWTPLHVAAHYGRDSFVRLLLE [ASB7], the protein stability index is, setting by setting: under setting [1], 2.45 ± 0.18; under setting [2], 2.59 ± 0.27.

With CYAAMKKKIYAMGGGSYGKLFESV [GAN], the protein stability index stood at 2.16 ± 0.39 under setting [1] and 2.23 ± 0.45 under setting [2].

AIELQGHNDRVQALSYAQHTRQLI [WDFY2]: the protein stability index under setting [1] amounted to 3.1 ± 0.36 and the protein stability index under setting [2] was determined as 3.15 ± 0.41.

As for KAKPEPDILEEEKIYAYPSNITSE [TMEM192], the protein stability index runs as follows: under setting [1], 4.82 ± 0.2; under setting [2], 4.83 ± 0.2.

In the case of HMVSDGSWVVRVQAAKLLGSMEQV [INTS4], the protein stability index reads like this: under setting [1], 2.48 ± 0.74; under setting [2], 2.1 ± 0.21.

In turn, TNLPIFKLKESTVRRRYSDFEWLR [SNX3] returned a protein stability index under setting [1] of 2.62 ± 0.3 and a protein stability index under setting [2] of 2.53 ± 0.36.

With EDAHLTQYKKEPVTTRQVRTIVEE [KRT17], the protein stability index by setting is: under setting [1], 5.01 ± 0.37; under setting [2], 5.01 ± 0.19.

As for TEDELRVRHLEEENRGIVVLGINR [AUH], the protein stability index is 4.29 ± 0.15 under setting [1] and 4.33 ± 0.39 under setting [2].

Turning to LTQDWVQENYLEYRQVPGSDPARY [MAGEA10], the protein stability index worked out at 4.06 ± 0.22 under setting [1] and 3.88 ± 0.2 under setting [2].

On to LPCTSRCPRPCRESAFKLSTGTSR [SCNN1D], for which the protein stability index turned out to be 2.64 ± 0.99 under setting [1] and 2.9 ± 0.38 under setting [2].

As for VNNYTNSFGGEWSAPDTMKRYSMY [TRIM29], the protein stability index by setting is: under setting [1], 2.32 ± 0.19; under setting [2], 2.62 ± 0.3.

In the case of AILMKAYQRFRQKSKASFLLLASG [PTGFR], the protein stability index runs as follows: under setting [1], 3.41 ± 0.86; under setting [2], 2.83 ± 0.41.

The sequence NKFASFIDKVRFLEQQNQVLETKW [KRT71] registered a protein stability index under setting [1] of 2.58 ± 0.42 and a protein stability index under setting [2] of 2.49 ± 0.4.

Regarding LDMELGPSQGQETNEVCEQAGGGA [ADAMTSL2], the protein stability index is, setting by setting: under setting [1], 5.33 ± 0.52; under setting [2], 5.27 ± 0.54.

Take IIRLVRVFRIFKLSRHSKGLQILG [KCNA4]: the protein stability index reads like this: under setting [1], 2.25 ± 0.53; under setting [2], 2.3 ± 0.4.

In the case of WDKEPWFWHDTLTEQLWRIFAGVH [TLE6], the protein stability index reads like this: under setting [1], 2.61 ± 0.82; under setting [2], 2.22 ± 0.57.

Turning to EGSADTEDRKLPAPGADVKVHRAR [EHMT1], the protein stability index is, setting by setting: under setting [1], 5.27 ± 0.44; under setting [2], 5.41 ± 0.17.

For the sequence STCFERPCFKWYTSPWSECTKTCG [ADAMTSL2], the protein stability index is, setting by setting: under setting [1], 2.47 ± 0.64; under setting [2], 2.75 ± 0.57.

For the sequence KYFGCELGAQTQFDVKNDRYIVNG [EIF5], the protein stability index is, setting by setting: under setting [1], 3.08 ± 0.35; under setting [2], 3.27 ± 0.26.

Take RDFLLDEANGLLPDDKLTLFCEVS [SPOPL]: the protein stability index by setting is: under setting [1], 3.03 ± 0.2; under setting [2], 3.08 ± 0.34.

As for VQAIFSGDPEEIRMLIHKTEDVNT [ANKRD44], the protein stability index is 3.76 ± 0.11 under setting [1] and 3.58 ± 0.11 under setting [2].

Regarding ESFTMDDMSWTCGNQDYKYRVSDV [VDR], the protein stability index is, setting by setting: under setting [1], 3.08 ± 0.27; under setting [2], 2.94 ± 0.13.

With QDRDALHMEGLIVRERILGADNID [FEM1B], the protein stability index came out at 4.38 ± 0.39 under setting [1] and 4.29 ± 0.28 under setting [2].

For the sequence LASGRIILILEGGYNLTSISESMA [HDAC6], the protein stability index reads like this: under setting [1], 2.63 ± 0.14; under setting [2], 2.82 ± 0.79.

On to EDLLAKEKDNSRRMLTDKEREMAE [LMNB1], for which the protein stability index runs as follows: under setting [1], 5.6 ± 0.31; under setting [2], 5.65 ± 0.28.

On to TFAMVKGYFFPTSARDCKFTGNFF [DHCR7], for which the protein stability index by setting is: under setting [1], 2.56 ± 0.39; under setting [2], 2.71 ± 0.43.

With MAPKTKKGCKVTLPEKPVKLASHT [FBF1], the protein stability index runs as follows: under setting [1], 4.16 ± 0.15; under setting [2], 4.21 ± 0.087.

As to FVVTMLKLIQKKLLDKTCDQVMEF [ZER1], the protein stability index came to 3.14 ± 0.39 under setting [1] and 3.15 ± 0.32 under setting [2].

Regarding ASSMLRKSQLGFLNVTNYCHLAHE [DCAF4], the protein stability index came out at 2.2 ± 0.41 under setting [1] and 2.42 ± 0.16 under setting [2].

For REEQCAAYNHRTDLFKSFPGPMDW [ADAMTS4], the protein stability index stood at 3.06 ± 0.45 under setting [1] and 3.1 ± 0.3 under setting [2].

For TVMMWPLAVYHRLWDRAYVRLKPA [RETREG3], the protein stability index was found to be 2.34 ± 0.23 under setting [1] and 2.27 ± 0.15 under setting [2].

Take KISKQFVAPADVRRLLSYCKGRDH [ZSWIM9]: the protein stability index amounted to 2.49 ± 0.32 under setting [1] and 2.81 ± 0.27 under setting [2].

On to FIYDMCGSNYANFELDLGKKVLNL [PTPN9], for which the protein stability index came out at 3.01 ± 1.1 under setting [1] and 2.22 ± 1.5 under setting [2].

Take SYRPAYDQGGPVEILPFLYLGSAY [DUSP5]: the protein stability index amounted to 2.08 ± 0.33 under setting [1] and 2.18 ± 0.32 under setting [2].

IFALYSSLKFKSRVPQTWSKRLYG [PLD5]: the protein stability index under setting [2] turned out to be 2.83 ± 1.7.

In turn, SSQSSLAQEEEEEDQGRTRKRKQS [DDIT3] had a protein stability index under setting [1] of 5.55 ± 0.32 and a protein stability index under setting [2] of 5.44 ± 0.09.

On to RSQHARKETEFLRLKRTRLGLDDF [STK38L], for which the protein stability index by setting is: under setting [1], 2.95 ± 0.28; under setting [2], 3.04 ± 0.44.

As for RFYLLLFSFLGLLALGVSLLCNAI [PTGFR], the protein stability index reads like this: under setting [1], 2.4 ± 0.26; under setting [2], 2.57 ± 0.24.

On to PSEWRPLSEGCRAELAETIVYARV [CCDC3], for which the protein stability index is, setting by setting: under setting [1], 3.14 ± 0.32; under setting [2], 2.51 ± 0.23.

As for ADKCVCGPSAPPAPTPPSLSQRVM [TIAF1], the protein stability index runs as follows: under setting [1], 4.15 ± 0.24; under setting [2], 4.42 ± 0.35.

IVLDRALHIPMYFFLAILSCSEIC [OR10K2]: the protein stability index came to 3.1 ± 0.18 under setting [1] and 3.19 ± 0.29 under setting [2].

Turning to AAGTHDGSVYFWATPRQVPSLQHL [WSB1], the protein stability index reads like this: under setting [1], 2.52 ± 0.22; under setting [2], 2.64 ± 0.21.

Consider AHSNEILIFSVQPKSLVRLSLEAV [KLHDC2], for which the protein stability index by setting is: under setting [1], 3.01 ± 0.48; under setting [2], 2.6 ± 0.12.

Take MVERRGPGRPRTDGENVFTGQSKI [KMT5A]: the protein stability index under setting [1] came to 4.19 ± 0.36.

Regarding MERPQPDSMPQDLSEALKEATKEV [HMOX1], the protein stability index by setting is: under setting [1], 5.44 ± 0.25; under setting [2], 5.43 ± 0.22.

As to GPIGGMMPPQPGIPQQQGMRPPMP [ZNF207], the protein stability index under setting [1] amounted to 4.35 ± 0.3 and the protein stability index under setting [2] turned out to be 4.36 ± 0.27.

In the case of WKFPVPVLKTSRSTPLSPAYISLV [KLHL13], the protein stability index stood at 2.48 ± 0.42 under setting [1] and 2.26 ± 0.1 under setting [2].

These data come from the supplement of paper PMC10567573.
